Measurements as given in US20240360206A1 (ALZPATH, published 2024).
Residue numbers refer to the chain shown, from its start.

What was measured:
[1] = biological target: T1, full length Tau (Tau441) (UniProt P10636-8 1-441); test: indirect ELISA on Tau441, antibody titrated
T1 construct: also called synthetic full length Tau

[2] = biological target: T2, Peptide B (phosphothreonine at position 6 of the peptide (pT217 by the filing's name)); test: indirect ELISA, peptide coated on the plate, HRP goat anti-rabbit antibody, TMB, read at 650 nm; axes without titles
T2 construct: also called WZN-1B; pT217b
T2 peptide: TPSLPTPPTREPKKVAC
Description: (§1) Antibodies were generated and purified. The antibodies were assayed using a standard indirect ELISA protocol. Briefly, peptide antigens corresponding to SEQ ID NOs: 74-81 were diluted to 1 μg/ml in PBS and plated onto a Greiner Bio One Microlon 96 well plate. Peptide antigens were produced by the manufacturer Abcam. WZN-1A and WZN-1B served as targets. WZN-1C, WZN-1D, WZN-1E, WZN-1F, WZN-1G, and WZN-1H served as negative controls. In the peptide antigen sequences, a phosphorylated residue is indicated by (pT) for phosphorylated threonine or (pS) for phosphorylated serine. After blocking with 1% BSA in PBS pH 7.4, antibodies were serially diluted 1 to 4 with an initial concentration of 1 μg/ml. After incubation, unbound antibodies were washed off with 1×TBST and HRP labeled goat anti-rabbit secondary antibody was applied according to the manufacturer's instructions. Subsequently, unbound secondary antibody was washed off with 1×TBST and 3,3′5,5′-tetramethylbenzidine (TMB) was applied for 5 minutes at room temperature and plates were read at 650 nm. Data is seen in FIG. 3.

[3] = biological target: T3, Peptide D (phosphothreonine at position 4 of the peptide (pT212 by the filing's name)); test: as above
T3 construct: also called WZN-1D; pT212
T3 peptide: RSRTPSLPTPPTREPKC
Description: as §1

[4] = biological target: T4, Peptide A (phosphothreonine at position 9 of the peptide (pT217 by the filing's name)); test: as above
T4 construct: also called WZN-1A; pT217a
T4 peptide: RSRTPSLPTPPTREPKC
Description: as §1

[5] = biological target: T5, Peptide C (none); test: as above
T5 construct: only Peptide C; also called WZN-1C; T217
T5 peptide: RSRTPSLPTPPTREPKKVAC
Description: as §1

T1 sequence (P10636 other isoform, or with tags, fused parts or gaps limits assumed): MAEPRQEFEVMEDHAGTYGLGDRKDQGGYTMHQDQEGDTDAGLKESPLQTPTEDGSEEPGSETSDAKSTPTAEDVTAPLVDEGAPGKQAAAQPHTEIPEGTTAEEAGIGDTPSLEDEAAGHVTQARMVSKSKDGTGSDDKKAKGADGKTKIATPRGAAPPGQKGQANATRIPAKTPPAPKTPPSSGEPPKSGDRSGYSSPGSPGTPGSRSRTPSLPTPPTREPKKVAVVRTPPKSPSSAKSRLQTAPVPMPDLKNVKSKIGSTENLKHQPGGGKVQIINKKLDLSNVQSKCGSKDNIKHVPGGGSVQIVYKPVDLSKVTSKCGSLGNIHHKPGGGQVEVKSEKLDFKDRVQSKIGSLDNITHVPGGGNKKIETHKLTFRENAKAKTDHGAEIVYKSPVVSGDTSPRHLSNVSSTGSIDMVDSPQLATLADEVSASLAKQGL

B1: PT3 (antibody, V domains shown)
VH: EVKLVESGGDLVKPGGSLKLSCAASGFTFSSYAMSWVRQNPEKRLEWVASISKGGNTYYPNSVKGRFTISRDNARNILYLQMSSLRSEDTALYYCARGWGDYGWFAYWGQVTLVTVSA
VL: DIKMTQSPSSMYASLGERVTITCKASQDINRYLNWFQQKPGKSPKTLIYRANRLLDGVPSRFSGSGSGQDYSLTISSLDYEDMGIYYCLQYDEFPLTFGDGTKLELK
[1]
  EC50 (read off the curve): ~0.2 µg/mL

B2: Antibody 3 (antibody, V domains shown)
VH: QSVEESGGRLVTPGTPLTLTCTVSGFSLSSYAMIWVRQAPGKGLEWIGFISRSGITYYASWAKGRFTISKTSTTVDLKMTSLTTEDTATYFCAREFGAVGSDYYRDAFNLWGPGTLVTVSS
VL: DIVMTQTPSSVSAAVGGTVTINCQASQNIYSNLAWYQQKPGQRPRLLIYGASNLASGVPSRFKGSRSGTEFTLTISDLECADAATYYCQGYDYSTAGAYPFGGGTAVVVKG
[2]
  binding result: no binding
[3]
  binding result: no binding
[4]
  binding result: no binding
[5]
  binding result: no binding

B3: Antibody 1 (antibody, V domains shown)
VH: QSLEESGGRLVTPGTPLTLTCTVSGFSLSSQKVGWVRQAPGKGLEWIGIINNYGSTYYASWAKGRFTISKTSTTVDLRITSLTAEDTATYFCARDPDGSIVFDIWGPGTLVTVSL
VL: AQVLTQTASPVSAAVGGTVTINCQSSQSVVYNNRLSWFQQKPGQPPKLLIYGASTLASGVPSRFKGSGSGTQFTLTISDVQCDDAATYYCLGSYDCSSGDCHAFGGGTEVVVKG
[5]
  binding result: no binding

B4: Antibody 2 (antibody, V domains shown)
VH: B2 VH
VL: DIVMTQTPASVEAAVGGTVTINCQASESINSWLSWYQQKPGQPPNLLIYRASTLASGVPSRFSGGGSGTEYTLTISDLECADAVTYYCQSYYEEDGIGYAFGGGTEVVVEG
notes: Rabbit monoclonal antibody; also called 30H10L2
[5]
  binding result: no binding
[1]
  binding result: no binding (tested: 10^4 ng/mL)

B5: Antibody 6 (antibody, V domains shown)
VH: QSLEESGGRLVTPGTPLTLTCTVSGIDLSTHAMTWVRQAPGKGLEWIGVINPSGSAYYATWVNGRFTISKTSTTVDLKITSPTTGDTAKYFCARDYITAGDYYMDAFDPWGPGTLVTVSS
VL: DIVMTQTPASVSAAVGGTVTIKCQASQSISNQLSWYQQKSGQPPKLLIYRASTLASGVPSRFKGSGSGTEFTLTISDLECADAATYYCQQGYNRDNVDNLFGGGTEVVVKG
notes: Rabbit monoclonal antibody; also called 71H1L2
[5]
  binding result: no binding
[1]
  binding result: no binding (tested: 10^4 ng/mL)

B6: Antibody 5 (antibody, V domains shown)
VH: B2 VH with R9G, T15G, P16T, S30N, I34S, M79I, L82P, T89A, F108L, N109R
VL: DIVMTQTPSSVSAAVGGTVTIKCQASQSIGSNLAWYQQKPGQPPKLLIYGASTLESGVPSRFKGSGSGTEYTLTISDLECADAATYYCQSYYEGSDIGYAFGGGTEVVVEG
notes: Rabbit monoclonal antibody; also called 62H10L7
[5]
  binding result: no binding
[1]
  binding result: no binding (tested: 10^4 ng/mL)

B7: Antibody 4 (antibody, V domains shown)
VH: B3 VH with S29N, S30N, Q31Y, N52Y, G54S, S55Q, R78K, I79L, L82P, A84T
VL: AQVLTQTASPVSAAVGSTVTINCQSSQSVYSNKRLAWFQLKPGQPPKLLIYGASTLASGVPSRFKGSGSGTQFTLTISDVQCDDAATYYCAGGYDCSTGDCWTFGGGTEVVVTG
[5]
  binding result: no binding
